Assay [1] addresses substrate B with the designed M13 variant M13-2 (SpyCatcher-M13-2-LPETG-SpyTag(DA)). Description: ITC; CaM (200 μM) titrated into B or P (18 μM); the paper calls K_a(c) an apparent binding constant.
For assay [2], the target named is substrate B with the designed M13 variant M13-3 (SpyCatcher-M13-3-LPETG-SpyTag(DA)). Described as above.
Assay [3] has as its target substrate B (SpyCatcher-M13-LPETG-SpyTag(DA)), with the original M13 (M13-1). Nature of the assay: kinetics of the covalent SpyTag-SpyCatcher reaction by SDS-PAGE densitometry + LC-MS of the product; A and B mixed 1:1 (10 μM each) with 0.1 equiv of SrtA or C, Tris-HCl buffer, pH 8.0, 10 mM CaCl2, 37 °C.

Where only a bound is given, the exact number is not on record here.

As for “calmodulin (CaM) (from UniProt P0DP23 1-149) (natural protein)”, the Ka is 20000 M⁻¹ in assay [1] and under 100 M⁻¹ in assay [2].

On to substrate A (GGG-SpyTag-YFP), for which, in assay [3], the k AB(c), second-order rate constant of the covalent SpyTag-SpyCatcher reaction in the catalyzed cascade (with C) worked out at 90 M^–1 s^–1 and the k AB(s), second-order rate constant of the covalent SpyTag-SpyCatcher reaction in the spontaneous cascade (with SrtA) is 67 M^–1 s^–1.

The values above are taken from article PMC12291137.
